The supplement of paper PMC9170038

Test system: MS2 coat protein
Assay: apparent KD of MS2 coat protein; designed switch direction (-1 OFF switch, 1 ON switch): -1; higher = weaker reporter binding
Outline: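 Apparent KD, taken as the median over clusters for each design, was obtained by curve-fitting normalised cluster fluorescence. Designed RNA switches had been transcribed on Illumina chips by stalled E. coli RNA polymerase and titrated with SNAP-549-labelled MS2 coat protein, doubling from 0.7 or 1.5 nM to 3 µM.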

[1] = Eterna round: R95, input ligand: FMN 200 uM
[2] = Eterna round: R95, input ligand: microRNA oligo, concentration not stated
[3] = Eterna round: R95, input ligand: none
[4] = input ligand: microRNA oligo, concentration not stated

Sequence	apparent KD of MS2 coat protein (input ligand: FMN 200 uM)	apparent KD of MS2 coat protein (input ligand: none)	apparent KD of MS2 coat protein [2]	other results
UAUUAGUAAGGAUAUCUCUGCAUGGACGAAAGUCCAUGCAGAGAGAAGGUACAUGAGGAUCACCCAUGUUCAUU [Mod of Fisker 17 - Jieux - Exclusion 4] (Eterna round: R97, puzzle: Exclusion 4)	17.1 nM	15 nM	–	–
UAUUAGUAAGGAUAUGAGCCGUAGGACGAAAGUCCUACGGCUCAGAAGGUACAUGAGGAUCACCCAUGUUUAUU [Mod of Fisker 6 - Jieux - Exclusion 4] (Eterna round: R97, puzzle: Exclusion 4)	22.5 nM	15.9 nM	–	–
UAUUCACAAGCGAGAUCCCACAUGAGGAUCACCCAUGUGCUCGUCUUAUAAGGUACUGUGACGAAAGUCACGGUACC [Sensor 3, v1 - 91 v25] (Eterna round: R97, puzzle: Sensor, turn-off variant 1)	19.9 nM	20 nM	–	–
UAUUCACAUGAGGAUCACCCAUGUCAGGAUAUAUUCGAUAUAUGGAAACAUAUAUCGAAUAGAAGGGACUAGCG [Jieuxxlusion 10 - Jieux - Exclusion 1] (Eterna round: R97, puzzle: Exclusion 1)	54.6 nM	–	–	–
UAUUCGCGAGGAUAUGCAUUCGAGUCCAUUACGUGUCUGGGACUUGAGGAUCACCCAAGUAGAAGGCGUCUCAU [salish99_ex2_r4_643] (Eterna round: R97, puzzle: Exclusion 2)	99.7 nM	145 nM	–	–
UAUUGAGAGCAGGAUAUAUUCCUGAUGUAUGAAGUAGAAGGGCUCACAUGAGGAUCACCCAUGUGAUCCUGAAU [Mat - Exclusion 6 - Eli Mod - D5] (Eterna round: R97, puzzle: Exclusion 6)	15.5 nM	14 nM	–	–
UAUUUAGCAAGCAGAUCCCACAUGAGGAUCACCCAUGUUUUCUGAAUGUACAGAAUUACUGUACUUGCUCGUCUUAU [Winner reversed engineered 36] (Eterna round: R97, puzzle: Sensor, turn-off variant 1)	76.2 nM	82.6 nM	–	–
UAUUUAGCAAGUAGAUCCUACAUGAGGAUCACCCAUGUGCUCUGAAAUAACGCAGAAUUACUGCGAGCUCGUCUUAU [Winner reversed engineered 28] (Eterna round: R97, puzzle: Sensor, turn-off variant 1)	1080 nM	1560 nM	–	–
UAUUUGCAAGCGAGAUCCCACAUGAGGAUCACCCAUGUGCUCGUCUUAUAAGGUACUGUGACGAUAGUCACGGUACC [Mat - Sensor, turn-off var - Eli Mod - D89] (Eterna round: R97, puzzle: Sensor, turn-off variant 1)	14 nM	14.4 nM	–	–
UCAAGCUUUAGGCGUGUGAACAUGAGGAUCACCCAUGUAUUUUUGGUUAGGAGUUCUGUAAGGGAUGCUCGUCUUAU [JR_SWV3TOV1_Sub092] (puzzle: Sensor v3, turn-off variant 1)	–	–	54.8 nM	apparent KD of MS2 coat protein [1]: 57.5 nM; apparent KD of MS2 coat protein [3]: 75.8 nM
UCAAGUUUUUUGUUUUUUAACAUGAGGAUCACCCAUGUAUUUUUAUAGUAUGUGUGAAUAAGAUCUCUUUGUCUUAU [JR_SV3TOV1_Sub098] (puzzle: Sensor v3, turn-off variant 1)	–	–	149 nM	apparent KD of MS2 coat protein [1]: 46.6 nM; apparent KD of MS2 coat protein [3]: 49.5 nM
UCACGGGACUAAGGAUAUACAUGAACUAUUAUUGUAGAAGGUAGAAUGUUAGAUUAUACACUAAACAUGAGGAUCACCCAUGUU [JR_ExcNG1_Sub094] (Eterna round: R96, puzzle: Exclusion NG 1)	–	–	–	apparent KD of MS2 coat protein [4]: 15.9 nM
UCACGGGAUUGAGGAUAUAUUUAAAUUUUUACAAUAGAAGGCAAAUUUUUAGUUUUUUCACUUUACAUGAGGAUCACCCAUGUU [JR_ExcBG1_Sub082] (Eterna round: R96, puzzle: Exclusion NG 1)	–	–	–	apparent KD of MS2 coat protein [4]: 19.6 nM
UCAUAACAUGAGGAUCACCCAUGUGAGGAUAUGAUACUAUGUACUUCGGUACAUAGUAUCAGAAGGCACAUACU [Ex1-3: 11] (puzzle: Exclusion 1)	–	–	88.9 nM	–
UCAUACGGUGAGGAUAUCUCCACUAAAGUGUGUAGAGAAGGCGCUACAUGAGGAUCACCCAUGUUUAUGGGCAG [Ex-6 Malc#13] (Eterna round: R96, puzzle: Exclusion 6)	–	–	–	apparent KD of MS2 coat protein [4]: 236 nM
UCAUACGGUGAGGAUAUCUCCACUAAAGUGUGUAGAGAAGGCGCUACAUGAGGAUCACCCAUGUUUAUGGGCAG [Ex-6 Malc#13] (puzzle: Exclusion 6)	–	–	109 nM	apparent KD of MS2 coat protein [1]: 52 nM; apparent KD of MS2 coat protein [3]: 124 nM
UCAUGUCCUGAGGAUAUCAAAGUCCUCCCGACAUGAGAAGGCAGGACAUGAGGAUCACCCAUGUGGAGCAGGGA [Sorareardi] (Eterna round: R97, puzzle: Exclusion 6)	10.3 nM	353 nM	–	–
UCCAACCCUGUGAGGAUAUCGUCCAUUAUUUGUAACGAGAAGGCACAUGAGGAUCACCCAUGUUUUUUAUUUUU [JR_BMOE4_Sub080] (puzzle: Brourd's mod of Exclusion 4)	–	–	28 nM	apparent KD of MS2 coat protein [1]: 83.7 nM; apparent KD of MS2 coat protein [3]: 22.5 nM

Sequence	apparent KD of MS2 coat protein (input ligand: FMN 200 uM)	apparent KD of MS2 coat protein (input ligand: none)	apparent KD of MS2 coat protein [2]	other results
UCCAUCCCUGUGAGGAUAUCGUCCGUUUUUUGUUCCGAGAAGGCACAUGAGGAUCACCCAUGUUUUUUGUUUUU [JR_BMOE4_Sub077] (puzzle: Brourd's mod of Exclusion 4)	–	–	30.2 nM	–
UCCUCACAUGAGGAUCACCCAUGUCAGGAUAUAAGAAACGCGGCAGGCAGCCGCAAAAUUAGAAGGGACAUUAA [EX1 A.27] (Eterna round: R97, puzzle: Exclusion 1)	47.5 nM	18.2 nM	–	–
UCCUCACCCAAGGAUAUCUGAGUCGGAACUAGCAGAGAAGGUGGCACAUGAGGAUCACCCAUGUAGACCAAUGC [Eternabot (L2) Solution 9] (Eterna round: R97, puzzle: Exclusion 6)	7.87 nM	7.73 nM	–	–
UCCUUACAUGAGGAUCACCCAUGUCAGGAUAUCUCCUCACUGCGCUUGCGCAGUGAAUAGAGAAGGGACGGGCU [JL ViennaUCT Aner mod 8] (puzzle: Exclusion 1)	–	–	32.4 nM	apparent KD of MS2 coat protein [1]: 36.6 nM; apparent KD of MS2 coat protein [3]: 40.1 nM
UCCUUACAUGAGGAUCACCCAUGUGAGGAUAUGAGGGUUGAUUUAAAUGGGUUGAUUUUCAGAAGGCACAUGAA [JR_Ex1_Sub062] (Eterna round: R97, puzzle: Exclusion 1)	46.2 nM	50.9 nM	–	–
UCGACCGGAGGAUAUUACGUAAAGUACAUGAGGAUCACCCAUGUGUGGUACCUCGAGUCGUAAGAAGGCCGAAAUA [Teisor] (puzzle: Exclusion 5)	–	–	605 nM	apparent KD of MS2 coat protein [1]: 283 nM; apparent KD of MS2 coat protein [3]: 505 nM
UCGAUGUGAGGAUAUAUUUUUUUUUUUCCUUAUGUUUUAUAACUUGAGGAUCACCCAAGUAGAAGGCGCUACGU [JR_Ex2_Sub063] (Eterna round: R97, puzzle: Exclusion 2)	70.6 nM	136 nM	–	–
UCGCUCCGUGUAGGAUAUCGCCGUACUAUUCGGCGAGAAGGACAUGAGGAUCACCCAUGUAUGUUAUUAUCACGCGUGGCGCAA [Design 59] (Eterna round: R96, puzzle: Exclusion NG 1)	20.3 nM	16.9 nM	–	apparent KD of MS2 coat protein [4]: 15.2 nM
UCGCUGCGAGGAUAUACAUGAGGAUCACCCAUGUACGGGUCCGGGUCUUCGUCCAUUGGUAGAAGGCGCAGUGA [JL Laongeedie mod 7] (puzzle: Exclusion 3)	–	–	22.5 nM	–
UCGCUGCGAGGAUAUACAUGAGGAUCACCCAUGUACGGGUCCGGGUCUUUGUCGAUUGGUAGAAGGCGCAGUGA [JL Laongeedie mod 10] (puzzle: Exclusion 3)	–	–	50.3 nM	–
UCGCUGCGAGGAUAUACAUGAGGAUCACCCAUGUGCGGGUCCGGGUCUUUGUCCAUUAGUAGAAGGCGCAGUGA [JL Laongeedie mod 5] (puzzle: Exclusion 3)	–	–	225 nM	–
UCUCGACAUGAGGAUCACCCAUGUCAGGAUAUUGUAUUGGAGGUUUUUUACCUUAUGGCAAGAAGGGAUGUGUG [LRO-Excl1-24] (puzzle: Exclusion 1)	–	–	18.3 nM	–
UCUCGCAGGCAAGGAUAUCCUACAUUGUUCUGGCCCGGGCAUGUUACAUGAGGAUCACCCAUGUGGGAGAAGGUGCGCCAGGGC [Design 34] (Eterna round: R96, puzzle: Exclusion NG 2)	30.6 nM	30.6 nM	–	apparent KD of MS2 coat protein [4]: 16.3 nM
UCUGCAACGCAAGGAUAUCUUAGAGUUGAAGAAAGAGAAGGUGCAGGUGAUAACAUGCCCGUAACAUGAGGAUCACCCAUGUAA [Eternabot solution 48] (Eterna round: R96, puzzle: Exclusion NG 1)	96.1 nM	79.3 nM	–	apparent KD of MS2 coat protein [4]: 68.3 nM
UCUGCCGCCGUGAGGAUAUGCCCGCGCGAACGCGGGCAGAAGGCACAUGAGGAUCACCCAUGUCCCGCGGUUUU [salish99_bmx4_r4_132] (Eterna round: R97, puzzle: Brourd's mod of Exclusion 4)	34.7 nM	17.2 nM	–	–
UCUGGUCGAGGAUAUACGUGAGGUGUUUCGGCACUAGGUCUACAUGAGGAUCACCCAUGUAGAAGGCGAUCAGA [EX2 #64] (Eterna round: R97, puzzle: Exclusion 2)	536 nM	60.6 nM	–	–
UCUGGUCGAGGAUAUAUAUGACGUGCUUCGGCACGAAGGUCACAUGAGGAUCACCCAUGUAGAAGGCGACCAGA [E2/9-A3] (Eterna round: R97, puzzle: Exclusion 2)	375 nM	52.1 nM	–	–
